In the nanobody polyreactivity screen of Harvey et al. (2022):

Test: yeast display, Sf9 membrane polyspecificity reagent, FACS + sequencing; frameworks hold sequencing errors
Method in brief: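 Synthetic nanobody libraries on Saccharomyces cerevisiae BJ5465 were galactose-induced for 36–48 hours, stained 1 hour at 4 °C with 10% biotinylated, detergent-solubilized Sf9 membrane reagent and enriched on streptavidin microbeads. FACS then separated cells into low and high (top ~1%) gates by anti-HA (expression) and streptavidin (reagent binding) fluorescence. Genes were colony-PCR amplified, MiSeq 2 × 250 sequenced and CDR-length filtered. A clone's polyreactivity label is that of its gate of origin.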

Row | Sequence | polyreactivity (PSR sort gate)
1 | QVQLVESGGGLVQAGGSLRLSCAASGRTFGINDMGWYRQAPGKERELVAVIRSGGGITFYADSVKGRFTISRDNAKNTVYLQMTSLKPEDTAVYYCAKTRRDFYDAINGGGPERYDYWGQGTQVTVSS | low polyreactivity
2 | QVQLVESGGGLVQAGGSLRLSCAASGFTFHQYTMGWYRQAPGKERELVAAISRSGYTNYADSVKGRFTISRDNAKNTVYLQMNSLKPEDTAVYYCNARSTRSRTYQSYDYWGQGTQVTVSS | high polyreactivity
3 | QVQLVESGGGLVQAGGSLRLSCPASGSTFVLNAMGWYSQAPGKERELVAAITGSGSTNYADSVKGRFTISRDNAKNTVYLQMNRLKPEDTAVYYCATAAVYPIPFGYWGQGTQVTVSS | low polyreactivity
4 | QVQLVESGGGLVQAGGSLRLSCAASGSTFGYYDMGWYRQAPGKERELVATITKSGGTTRYADSVKGRFTISRDNAKNTVYLQMNSLKPEDTAVYYCAADGTWRLLDDYWGQGTQVTVSS | low polyreactivity
5 | QVQLVESGGGLVQAGGSLRLSFAASGRTFYYYASRWYRQAPGKERELVARIRSGGSTNYADSVKGRFTISRDNAKNTFYLQMNSLKPEDTAVYYCNALGAKGYVKGFDYRGQGTQVTVSS | low polyreactivity
6 | QVQLVESGGGLVQAGGSLRLSCAASGRTIQTYVMGWYRQAPGKERELVASIRSGGRTKYADSVKGRFTISRDNAKNTVYLQMNSLKPEDTAVYYCAADRRAYYYSFDYWGQGTQVTVSS | low polyreactivity
7 | QVQLVESGGGIVQAGGSLRLSCAASGRTFRPYAMGWYRQAPGKERELVAAITSGGSTYYADSVKGRFTISRDNAKNTVYLQMNSLKPEDTAVYYCNAKYYYQPPYDYWGQGTQVTVSS | low polyreactivity
8 | QVQLVESGGGLVQAGGSDRLSCAASGNTFYPNAMGWYRPAPGKERELVAAITTSGGTTYYADSVKGRFTISRDNAKNTVYLQMNSLKPEDTAVYYCAAYWSRDKYDYWGQGTQVTVSS | low polyreactivity
9 | QVQLVESGGGLVQAGGSLRLSCAASGFTFIKYAMGWYRQATGNEREFVATISWNGGNTYYADSVKGRFTISRDNAKNTVYLQMNSLKPEDTAVYYCAARVKYRTRGGTVVSYDYWGQGTQVTVSS | high polyreactivity
10 | QVQHVDSGGCLVQAGGTLRLSCAASGFTLWAYAMGWYRQAPGKEREFVAVISRSDGSTYYADSVKGRFTISRENAKNTVYLQMNSLKPEDSAVYYCAAKHRGAKYDYWGQGTQVTVSS | low polyreactivity
11 | QVQLVESGGGLVQAGGSLRLSCAASGRIFYRYGMGWYRQAPGKERELVASITRGGSTYYADSVKGRFTISRDNAKYTVYLQMNSLKPEDTAVYYCATKSSAGYDYWGQGTQVTVSS | low polyreactivity
12 | QVQLVESGGGLVQAGGSLRLSCAASGRILLTYAMGWYRPAPGKERELVAAISSDSRTYYADSVKGRFTISRDNAQNTVYLQMNSLKPEDTAVYYCVRRRYKYDYWGQGTQVTVSS | low polyreactivity
13 | QVQLVESGGGLGHAGGSLRLSCAASGSIFFWYAMGWYRQAPGKERELVAAITQRTGSTYYADSVKGRFTISRDNAKNTVYLQMNSLKPEDTAVYYCAGKRWRRSFTGNYWGLGTQVTVSS | high polyreactivity
14 | QVQLVESGGGLVQAGGSLRLSCAASGSIFGGYAMGWYRQPPGKERELVAAITWGGGSTYYADSVKGRFTISRDNAKNTVYLQMNSLKPEDTAVYYCAADRSWYDWEDDYWGQGTQVTVSS | low polyreactivity
15 | QVQLVESGGGLVQAGGSLRLSCAASGFTFGGYAMGWYRQAPGKERDLVAAITGSGGNTIYADSVKGRFTISRDNAKNTFYLQINSLKPDDTAVYYCNARYTSHTHADCVYLFDYWGQGTQVNVSS | low polyreactivity
16 | QVQLVESGGGLVQAGGSLRLSCAASGRIFYAYAMGWYRQAPGTERELVAAISSGGSTKYADSVKGRFTISRDNAKNTVYLQMNSLKPEDTAVYYCNADATAQSFGSLFDYWGLGTQVTVSS | low polyreactivity
17 | QVQLVESGGGLVQAGGSLRLSCAASGRIFPAYVMGWYRQPPGKERELVATIDNGGGTYYADSVKGRFTISRDNAKNTVYLQMNSLKPEDTAVYYCARDPHVRWGLKMDYWGQGTQVTVSS | low polyreactivity
18 | QVQLVESGGGLVQAGGSLRLSCAASGFTFPWNVMGWYRQAPGKEREFVAAISKSAGSTFYADSVKGRFTISRDNAKNTVYLQMNSLKPEDTAVYYCAKPRVPGVHVQEMYYWGQGTQVTVSS | low polyreactivity
19 | QVQLLESGCGLVQAGGSLSIRCAATGFIFIFIAMGWSRQATGTERELVAAIDTSDDSTYYADSVMGRFTISRDNAKNTVYLQMNRLKTEDTAVYYCAAEELSNYEYWGQGTQVTVSS | low polyreactivity
20 | QVQLVESGGGLVQAGGSLRLSCAASGSIFSENTMGWYRPAPGKKRELVADITSGGSTNYADSVKGRFTISRDNAKKTVYLQMNSLKPEDTAVYYCAADYNGEYDYWGLGTQVTVSS | low polyreactivity
21 | QVQLVESGGGLVQAGGSLRLSCAASGRIFDYYDMGWYRQAPGKERELVAAISNGGSTYYADSVKGRFTISRDNAKNTVYLQMNCLKPEDTAVYYCNNRWYYQYGQSHVRWYDYWGQGTQVTVSS | high polyreactivity
22 | QDQLVESGGGLVQAGGSLRLSCAASGRTISYYAMGWYRQAPGKERELVAAISGGGSTNYADSVKGRFTISRDNAKNTVYLQMNSLKPEDTAVYYCNARVYGVFRRRVNYWGQGTQVTVSS | high polyreactivity

Row | Sequence | polyreactivity (PSR sort gate)
23 | QVQLVESGGGLVQAGGSLRLSCAASGITFSRNGMGWYRQAPGKERELVAAISTSGDSTDYADSVKGRFTISRDNAKNTVYLQMNSLKPEDTAVYYCATEWSYYNYGYDYWGQGTQVTVSS | low polyreactivity
24 | QVQLVESGGGLVQAGGSLRLSCAASGITFWFNAMGWYRQAPGQERELVAAITSGVDTNYADSVKGRFTISRDNAKNTVYLQMNSLIPEDTAVYYCAAQGGRLKRGRTTSDYWGQGTQVTVSS | low polyreactivity
25 | QVQLVESWGGLVQAGGSLRLSCAASGYIFDRYAMGWYRQAPGKERELVAAISGRGGSTYYADSVKGRFTISRDNAKNTVYLQMNSLKPEDTAVYYCARDVYVRNGQRARYDSWGQGTQVTVSS | high polyreactivity
26 | QVRLVESGGGLVQAGGSLRLSSAASGRIFNGNAMGWYRQAPGKERELVAAINRGGSTNYADSVKGRFTISRDNAKNTVYLQMNSLKPEDTAVYYCAAELLYATRWRRYSGYYDWGQGTQVTVSS | high polyreactivity
27 | QVQLVESGGGLVQAGGSLRLSCAASGFIFVRYAMGWYRLAPGKEREFVAAISGGAGSSYYADSVKGRFTISRDNAKNTVYLQMNSLKPEDTAVYYCNRVRSLRYGYWGQGTQVTVSS | high polyreactivity
28 | QVQLVESGGGLVQAGGSLRLSCAASGRTFRPYAMGWYRQAPGKERELVAAITGGTRTYYADSVKGRFTISRDNAKNTVYLQMNSLKPEDTAVYYCAKGDFFSKHDYLGQGTQVTVSS | low polyreactivity
29 | QVQLVESGGGLVQAGGSLRLSCAASGGIFTLYVMGWYRQAPGKERELVAAISRTGGSTYYADSVKGRFTISRDNAKNTVYLQMNSLKPEDTAVYFCAALYRGGTRYGGYDYWGQGTQVTVSS | high polyreactivity
30 | QVQLVESGGGLVQAGGSLRLSCAASGSIFYQYAMGWYRQAPGKEREFVAAITRRGTSTYYADSVKGRFTISRDIAKNTVYLQMNSLKPEDTAVYYCAARYGPNMDYWGQGTQVTVSS | high polyreactivity
31 | QVQLVESGGGLVQAGGSLRLSCAASGFIFPVNAMGWYRQAAGKERELVAAITSSGGDTYYADSVKGRFTISRDNAKNTVYLQMNSLKPEDTAVYYCAAEYTQEQEDYDYWGQGTQLTVSS | low polyreactivity
32 | QVQLVESGGGLVQAGGSLRLSCAASGRIISAYAMGWYRQAPGKERELVAAITGSGGSTYYADTVKGRFTISRDNAKKTVYLQMNSRKPEDTAVYYCAAKIDYPDARYFPYRYYYWGQGTQVTVSS | high polyreactivity
33 | QVQLVESGGGLVQAGGSLRLSCAASGRTFGFNAMGWSRPAPGKERELVAVITRGGSTYADSVKGRFTISRDNAKNTVYLQMNSLKPEDTAVYYCAAYRYGFKTWMDYWGQGTQVTVSS | high polyreactivity
34 | QVQLVESGGGLVQAGGSLRLSCAASGFTFYGNAMGWYRQAPGKERELVAAISSSGGITYYADSVKGRFTISRDNAKNTVYLQMNSLKPEDTAVYYCAAVQGTPDYEYDSWGQGTQVTVSS | low polyreactivity
35 | QVHLVESGGGLVQAGGSLRLSCAASGSTFQRYAMGWDRQAPGKERELDAAITIRGTRTYYADSVKGRFTISRDNAKNTVYLQMNSLKPEDTAVYYCAATYYWYGHPSRRYDYWGQGTQVTVSS | high polyreactivity
36 | QVQLVESGGGLVQAGGSLRLSCAASGITFVGNAMGGYRQATGKERELVAVIRGNGGSTYYADSVKGRFTISRDNAKNTVYLQMNSLKPEDTAVYYCAAAAYYADFDYLGQGTQVTVSS | low polyreactivity
37 | QVQLVESGGGLVQAGGSLRLRCAASGITLVDYAMGWNRQAPGKERELVAAITTGGSTNYADSVKGRFTISRDNAKNTVYLQINSLKPEDTAVYYCNKRAVILYDYWGQGTQVTVSS | low polyreactivity
38 | QVQLVESGGGLVQAGGSLRLSCAAYGSIFGGNAMGWYRQAPGKERELVARITDRGGSTDYADSVKGRFTISRDNAKNTVFLHMNSLKREDTAVYYCAKRGDRYEQRPRDYWGQGTQVTVSS | low polyreactivity
39 | QVQLVESGVGLVQAGGSLRLSCAASGSIFYRNAMVWYRQAHGKERELVAAISGTGGSTYYADSLKGRFTISRDNAKNTVYLQMNSLKPEDTAVYYCASGVTYRHDYWGQGTQVTVSS | high polyreactivity
40 | QVQLVESGGGLVQAGGSLRLSCAASGRTFLSNAMGWYRQEPGKERELVAAINSGDSTYYAYSVKGRFTISRYNAKNTVYLQMNSLKPEDTAVYYCAAAFYYRRMYYWGKGTQVTVSS | high polyreactivity
41 | QVQLVESGGGLVQAGGSLRLSCAASGRTFGTYAMGWSRQAPGKERELVAAITWRTGNTYYADSVKGRFTISRDNAKNTVYLQMNSLKPEDTAVYYCAKTSSGRKFYWGQGTQVTVSS | high polyreactivity
42 | QVQLVESGGALVQAGGSLRLSCAASGSIFSRNAMGWYRTAPGKERELVAGISTGGSTNYADSVKGRFTISRDNAKNTVYLQMTSLKPEDTAVYYCAAPLAYEGDYWGQGTQVTVSS | low polyreactivity
43 | QVQLVESGAGLVQARGSLRLSCAASGRIFYQYAMGWYRQAPGKERELVAAISWNGGRTYYADSVKGRFTISRDNAKNTVYLQMNSLKPEDTAVYYCAASFTGYSRDRYGYWGQGTQVTVSS | high polyreactivity
